Measured values reported in patent US20060264363.

T1: biotinylated SHC3 (p64), C-terminal tagged (pcDNA3.1/V5-His)
T1 chain: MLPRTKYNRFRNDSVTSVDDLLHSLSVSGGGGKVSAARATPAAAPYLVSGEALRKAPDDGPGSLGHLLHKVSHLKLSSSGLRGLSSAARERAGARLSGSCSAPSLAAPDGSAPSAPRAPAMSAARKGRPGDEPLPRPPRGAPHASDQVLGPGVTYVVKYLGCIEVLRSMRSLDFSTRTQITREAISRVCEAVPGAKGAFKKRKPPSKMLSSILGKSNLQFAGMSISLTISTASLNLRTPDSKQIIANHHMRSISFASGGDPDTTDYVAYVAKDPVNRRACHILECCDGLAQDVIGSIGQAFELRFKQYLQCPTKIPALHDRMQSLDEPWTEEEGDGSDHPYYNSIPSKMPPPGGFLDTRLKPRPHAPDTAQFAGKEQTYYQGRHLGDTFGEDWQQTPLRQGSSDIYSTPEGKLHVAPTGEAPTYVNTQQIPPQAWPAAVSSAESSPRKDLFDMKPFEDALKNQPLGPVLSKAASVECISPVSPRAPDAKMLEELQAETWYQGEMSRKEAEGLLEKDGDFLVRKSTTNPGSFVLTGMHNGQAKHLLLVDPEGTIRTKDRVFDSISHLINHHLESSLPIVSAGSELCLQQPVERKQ

T2: CREBL1 with N-terminal c-Myc-tag
T2 chain: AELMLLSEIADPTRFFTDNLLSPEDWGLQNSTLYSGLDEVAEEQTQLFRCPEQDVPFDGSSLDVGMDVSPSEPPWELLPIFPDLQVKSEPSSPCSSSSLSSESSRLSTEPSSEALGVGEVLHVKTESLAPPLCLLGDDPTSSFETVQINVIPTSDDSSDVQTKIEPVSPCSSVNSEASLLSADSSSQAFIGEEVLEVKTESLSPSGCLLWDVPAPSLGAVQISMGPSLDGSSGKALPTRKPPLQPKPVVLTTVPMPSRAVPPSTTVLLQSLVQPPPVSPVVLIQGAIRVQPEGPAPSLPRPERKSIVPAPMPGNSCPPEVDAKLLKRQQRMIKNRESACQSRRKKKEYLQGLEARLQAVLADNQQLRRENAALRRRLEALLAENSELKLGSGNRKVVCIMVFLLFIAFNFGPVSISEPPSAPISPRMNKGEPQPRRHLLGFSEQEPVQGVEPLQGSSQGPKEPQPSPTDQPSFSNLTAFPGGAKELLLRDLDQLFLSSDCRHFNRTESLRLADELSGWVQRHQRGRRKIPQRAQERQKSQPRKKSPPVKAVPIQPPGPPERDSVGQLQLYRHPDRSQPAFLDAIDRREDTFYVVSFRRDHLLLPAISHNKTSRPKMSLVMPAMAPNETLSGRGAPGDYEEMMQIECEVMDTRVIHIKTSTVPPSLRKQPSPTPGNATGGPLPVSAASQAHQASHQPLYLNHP

T3: SHC3 (p64) with C-terminal c-Myc-tag
T3 chain: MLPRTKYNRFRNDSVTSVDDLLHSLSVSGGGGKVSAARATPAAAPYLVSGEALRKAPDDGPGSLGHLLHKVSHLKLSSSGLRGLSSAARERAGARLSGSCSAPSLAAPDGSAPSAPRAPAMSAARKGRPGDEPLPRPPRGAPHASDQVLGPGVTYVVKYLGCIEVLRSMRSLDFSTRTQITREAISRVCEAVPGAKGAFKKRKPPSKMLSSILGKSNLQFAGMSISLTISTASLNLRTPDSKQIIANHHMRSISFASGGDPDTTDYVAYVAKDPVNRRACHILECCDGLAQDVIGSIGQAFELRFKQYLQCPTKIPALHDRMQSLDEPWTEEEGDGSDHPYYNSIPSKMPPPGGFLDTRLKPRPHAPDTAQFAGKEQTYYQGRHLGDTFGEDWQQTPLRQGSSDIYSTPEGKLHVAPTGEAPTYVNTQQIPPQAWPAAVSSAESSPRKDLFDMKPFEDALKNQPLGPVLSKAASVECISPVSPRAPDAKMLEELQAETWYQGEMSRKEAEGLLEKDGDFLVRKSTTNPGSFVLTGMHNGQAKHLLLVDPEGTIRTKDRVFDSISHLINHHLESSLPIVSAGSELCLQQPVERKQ

T4: SHC3 (p52) with C-terminal c-Myc-tag
T4 chain: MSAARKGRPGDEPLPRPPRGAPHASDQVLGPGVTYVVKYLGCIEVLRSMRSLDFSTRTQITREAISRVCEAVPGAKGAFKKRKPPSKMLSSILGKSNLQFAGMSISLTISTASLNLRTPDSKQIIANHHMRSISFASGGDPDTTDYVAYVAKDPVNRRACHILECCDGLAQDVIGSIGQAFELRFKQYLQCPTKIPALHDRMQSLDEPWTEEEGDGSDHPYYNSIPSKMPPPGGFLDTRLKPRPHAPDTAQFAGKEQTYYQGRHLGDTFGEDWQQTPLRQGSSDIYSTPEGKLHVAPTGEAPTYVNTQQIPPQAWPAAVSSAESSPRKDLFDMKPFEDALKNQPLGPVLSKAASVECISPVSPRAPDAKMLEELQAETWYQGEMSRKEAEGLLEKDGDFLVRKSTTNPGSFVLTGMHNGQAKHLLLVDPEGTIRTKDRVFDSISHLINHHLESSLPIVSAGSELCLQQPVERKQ

T5: biotinylated SHC3 (p52), C-terminal tagged (pcDNA3.1/V5-His)
T5 chain: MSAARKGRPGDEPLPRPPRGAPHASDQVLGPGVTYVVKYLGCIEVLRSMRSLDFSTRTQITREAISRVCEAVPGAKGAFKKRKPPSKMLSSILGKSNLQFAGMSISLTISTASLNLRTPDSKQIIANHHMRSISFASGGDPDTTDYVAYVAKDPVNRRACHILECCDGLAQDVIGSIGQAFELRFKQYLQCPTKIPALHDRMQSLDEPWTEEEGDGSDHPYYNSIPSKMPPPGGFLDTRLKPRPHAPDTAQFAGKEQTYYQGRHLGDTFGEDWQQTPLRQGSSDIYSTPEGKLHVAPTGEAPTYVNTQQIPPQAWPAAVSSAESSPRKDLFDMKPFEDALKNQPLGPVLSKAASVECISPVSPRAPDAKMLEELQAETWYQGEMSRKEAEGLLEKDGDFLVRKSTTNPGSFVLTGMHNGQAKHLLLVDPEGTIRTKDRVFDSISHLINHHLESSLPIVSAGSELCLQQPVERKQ

T6: biotinylated CREBL1, N-terminal tagged (pcDNA3.1/His)
T6 chain: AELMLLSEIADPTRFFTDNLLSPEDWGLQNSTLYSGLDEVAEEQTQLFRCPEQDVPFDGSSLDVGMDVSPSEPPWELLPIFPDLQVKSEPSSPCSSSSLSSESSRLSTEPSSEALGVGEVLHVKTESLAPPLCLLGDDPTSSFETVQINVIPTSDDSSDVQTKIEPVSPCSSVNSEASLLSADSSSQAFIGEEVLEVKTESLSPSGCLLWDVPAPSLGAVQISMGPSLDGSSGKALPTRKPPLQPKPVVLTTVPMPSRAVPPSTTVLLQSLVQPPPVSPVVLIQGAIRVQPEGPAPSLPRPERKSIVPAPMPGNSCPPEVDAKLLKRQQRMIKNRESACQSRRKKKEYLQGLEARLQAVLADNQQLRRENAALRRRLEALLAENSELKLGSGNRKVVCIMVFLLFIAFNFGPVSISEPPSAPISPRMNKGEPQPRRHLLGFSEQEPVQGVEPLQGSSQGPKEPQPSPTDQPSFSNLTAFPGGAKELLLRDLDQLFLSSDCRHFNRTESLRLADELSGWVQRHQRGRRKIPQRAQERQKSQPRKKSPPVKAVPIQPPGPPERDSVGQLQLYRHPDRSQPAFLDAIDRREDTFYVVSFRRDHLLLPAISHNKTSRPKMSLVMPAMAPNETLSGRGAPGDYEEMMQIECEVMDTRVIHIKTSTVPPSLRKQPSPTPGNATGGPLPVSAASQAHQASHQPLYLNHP

T7: ATF6 with N-terminal c-Myc-tag
T7 chain: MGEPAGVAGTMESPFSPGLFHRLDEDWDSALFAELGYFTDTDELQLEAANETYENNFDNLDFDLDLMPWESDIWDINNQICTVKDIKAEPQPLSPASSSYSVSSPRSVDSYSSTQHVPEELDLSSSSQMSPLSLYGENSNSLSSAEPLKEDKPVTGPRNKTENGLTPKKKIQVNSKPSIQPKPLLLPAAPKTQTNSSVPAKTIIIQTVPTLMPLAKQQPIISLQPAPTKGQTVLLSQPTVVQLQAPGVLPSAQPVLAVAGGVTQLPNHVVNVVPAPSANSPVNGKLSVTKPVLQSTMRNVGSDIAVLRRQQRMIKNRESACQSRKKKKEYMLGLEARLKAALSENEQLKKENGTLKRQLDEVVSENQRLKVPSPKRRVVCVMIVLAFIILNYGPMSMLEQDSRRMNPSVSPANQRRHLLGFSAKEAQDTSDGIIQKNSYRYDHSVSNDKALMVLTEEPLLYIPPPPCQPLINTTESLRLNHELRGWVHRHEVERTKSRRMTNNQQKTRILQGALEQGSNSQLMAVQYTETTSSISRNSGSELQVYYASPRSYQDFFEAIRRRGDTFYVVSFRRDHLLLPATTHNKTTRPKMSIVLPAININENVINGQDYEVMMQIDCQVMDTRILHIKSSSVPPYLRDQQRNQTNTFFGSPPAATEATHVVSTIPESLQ


How the values were obtained:
[1] = molecular target: T1, biotinylated SHC3 (p64), C-terminal …
[2] = molecular target: T2, CREBL1 with N-terminal c-Myc-tag
[3] = molecular target: T3, SHC3 (p64) with C-terminal c-Myc-tag
[4] = molecular target: T4, SHC3 (p52) with C-terminal c-Myc-tag
[5] = molecular target: T5, biotinylated SHC3 (p52), C-terminal …
[6] = molecular target: T6, biotinylated CREBL1, N-terminal tagged …
[7] = molecular target: T7, ATF6 with N-terminal c-Myc-tag

Row | Protein | in vitro protease assay: degradation pattern of biotinylated SHC3 (p64) (streptavidin HRP and anti-V5 blots) [1] | in vitro protease assay: band of CREBL1 on anti-Myc Western blot [2] | in vitro protease assay: band of SHC3 (p64) on anti-Myc Western blot [3] | in vitro protease assay: degradation of SHC3 (p52), anti-Myc Western blot [4] | in vitro protease assay: degradation pattern of biotinylated SHC3 (p52) (streptavidin HRP and anti-V5 blots) [5] | in vitro protease assay: degradation pattern of biotinylated CREBL1 (streptavidin HRP and anti-Xpress blots) [6] | in vitro protease assay: band of ATF6 on anti-Myc Western blot [7] | in vitro protease assay: degradation of biotinylated SHC3 (p64) (streptavidin HRP blot) [1] | in vitro protease assay: degradation of CREBL1, anti-Myc Western blot [2] | in vitro protease assay: degradation of SHC3 (p64), anti-Myc Western blot [3] | in vitro protease assay: degradation of biotinylated SHC3 (p52) (streptavidin HRP blot) [5] | in vitro protease assay: degradation of biotinylated CREBL1 (streptavidin HRP blot) [6] | in vitro protease assay: degradation of ATF6, anti-Myc Western blot [7]
1 | mature HtrA2 with C-terminal histidine (His)-tag (protein) MAVPSPPPASPRSQYNFIADVVEKTAPAVVYIEILDRHPFLGREVPISNGSGFVVAADGLIVTNAHVVADRRRVRVRLLSGDTYEAVVTAVDPVADIATLRIQTKEPLPTLPLGRSADVRQGEFVVAMGSPFALQNTITSGIVSSAQRPARDLGLPQTNVEYIQTDAAIDFGNSGGPLVNLDGEVIGVNTMKVTAGISFAIPSDRLREFLHRGEKKNSSSGISGSQRRYIGVMMLTLSPSILAELQLREPSFPDVQHGVLIHKVILGSPAHRAGLRPGDVILAIGEQMVQNAEDVYEAVRTQSQLAVQIRRGRETLTLYVTPEVTE | remarkable reduction of the band of biotinylated SHC3 (p64) was observed, and further, the bands that were supposed to be a degradation products of SHC3 (p64) were detected around 70 kDa, 40 kDa, and 30 kDa | the band of CREBL1 was significantly reduced after the reaction of active HtrA2 with CREBL1 for overnight (O/N) | the band of SHC3 (p64) was significantly reduced after the reaction of active HtrA2 with SHC3 (p64) for four hours (4 h) or overnight (O/N) | Further it was observed that SHC3 (p52) was also degraded by mature HtrA2. | remarkable reduction of the band of biotinylated SHC3 (p52) was observed, but the band that was supposed to be a degradation product of SHC3 (p52) was not detected | remarkable reduction of the band of biotinylated CREBL1 was observed, and further, the band that was supposed to be a degradation product of CREBL1 was detected around 50 kDa | the band of ATF6 was significantly reduced after the reaction of active HtrA2 with ATF6 for four hours (4 h) or overnight (O/N) | – | – | – | – | – | –
2 | mature HtrA2 (S306A) with C-terminal histidine (His)-tag (protein) MAVPSPPPASPRSQYNFIADVVEKTAPAVVYIEILDRHPFLGREVPISNGSGFVVAADGLIVTNAHVVADRRRVRVRLLSGDTYEAVVTAVDPVADIATLRIQTKEPLPTLPLGRSADVRQGEFVVAMGSPFALQNTITSGIVSSAQRPARDLGLPQTNVEYIQTDAAIDFGNAGGPLVNLDGEVIGVNTMKVTAGISFAIPSDRLREFLHRGEKKNSSSGISGSQRRYIGVMMLTLSPSILAELQLREPSFPDVQHGVLIHKVILGSPAHRAGLRPGDVILAIGEQMVQNAEDVYEAVRTQSQLAVQIRRGRETLTLYVTPEVTE | – | – | – | the degradation of SHC3 (p52) by inactive HtrA2 (mature HtrA2 (S306A)) was not observed as well | – | – | – | the degradation of SHC3 (p64) by inactive HtrA2 (mature HtrA2 (S306A)) was not observed, and the bands around 70 kDa, 40 kDa and 30 kDa as above were not detected | the degradation of CREBL1, ATF6, and SHC3 (p64) by inactive HtrA2 (mature HtrA2 (S306A)) was not observed | the degradation of CREBL1, ATF6, and SHC3 (p64) by inactive HtrA2 (mature HtrA2 (S306A)) was not observed | the degradation of SHC3 (p52) by inactive HtrA2 (mature HtrA2 (S306A)) was not observed | the degradation of CREBL1 by inactive HtrA2 (mature HtrA2 (S306A)) was not observed, and the band around 50 kDa as above was not detected | the degradation of CREBL1, ATF6, and SHC3 (p64) by inactive HtrA2 (mature HtrA2 (S306A)) was not observed
